According to patent US20090202543A1 (ONCOTHERAPY SCIENCE, published 2009):

Target: T1, B7330N-myc (myc-tagged B7330N expressed from pcDNA3.1-B7330N-myc in COS-7 cells) (human, UniProt Q8NCL4 1-622)
T1 construct: Expressed by transfection in COS-7 cells and tested in cell lysates; also called GALNT6; not shown: myc-his tag from the pcDNA3.1-myc-his vector (Invitrogen)
T1 sequence: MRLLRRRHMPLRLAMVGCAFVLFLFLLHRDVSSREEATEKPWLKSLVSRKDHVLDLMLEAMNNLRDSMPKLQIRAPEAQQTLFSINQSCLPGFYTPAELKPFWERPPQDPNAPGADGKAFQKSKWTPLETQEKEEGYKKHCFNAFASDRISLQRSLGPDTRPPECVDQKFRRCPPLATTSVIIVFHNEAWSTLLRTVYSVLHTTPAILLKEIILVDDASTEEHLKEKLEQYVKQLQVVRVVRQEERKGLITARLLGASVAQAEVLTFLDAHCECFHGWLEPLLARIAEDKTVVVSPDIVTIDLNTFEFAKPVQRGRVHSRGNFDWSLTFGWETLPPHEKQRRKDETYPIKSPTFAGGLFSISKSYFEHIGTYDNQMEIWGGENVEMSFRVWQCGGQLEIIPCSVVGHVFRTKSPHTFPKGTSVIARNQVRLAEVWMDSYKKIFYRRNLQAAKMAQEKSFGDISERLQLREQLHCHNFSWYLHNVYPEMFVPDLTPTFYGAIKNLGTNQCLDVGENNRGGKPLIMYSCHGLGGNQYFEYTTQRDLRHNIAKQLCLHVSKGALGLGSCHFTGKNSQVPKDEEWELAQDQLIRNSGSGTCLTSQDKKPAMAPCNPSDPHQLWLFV
Test: co-immunoprecipitation from co-transfected COS-7 cells, anti-myc pull-down
Text: To investigate that hypothesis, we designed two kinds of tagged-B7330N constructs to examine homo-oligomerization. pCAGGS-B7330N-HA and pcDNA3.1-B7330N-myc were co-transfected into COS-7 cells and co-immunoprecipitated using anti-HA or anti-myc antibody, respectively.

B1: B7330N-HA (HA-tagged B7330N expressed from pCAGGS-B7330N-HA in COS-7 cells) (enzyme)
chain: T1 sequence
modifications: N-glycosylated at Asn-476
notes: Expressed by transfection in COS-7 cells and tested in cell lysates; also called GALNT6; UDP-N-acetyl-alpha-D-galactosamine: polypeptide N-acetylgalactosaminyltransferase 6; not shown: C-terminal HA tag from the pCAGGS-HA vector
binding result: binds
